Reference: publication PMC3858276 (2013)
Where no end group is shown, it is not given here.

T1: Fyn SH2 domain without biotin (for MST) (UniProt P06241 149-246)
T1 chain: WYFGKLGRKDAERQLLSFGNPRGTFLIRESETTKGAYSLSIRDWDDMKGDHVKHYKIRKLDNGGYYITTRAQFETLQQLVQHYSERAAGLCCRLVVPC

T2: phosphorylated SNAP-ADAP fusion protein (ADAP amino acids 570-690) (human, UniProt O15117 570-690, phosphotyrosine (in vitro phosphorylation by Fyn kinase, approx. 90% of each phosphorylation site; sites in Table S1); BG-647 dye on the SNAP-tag)
T2 chain: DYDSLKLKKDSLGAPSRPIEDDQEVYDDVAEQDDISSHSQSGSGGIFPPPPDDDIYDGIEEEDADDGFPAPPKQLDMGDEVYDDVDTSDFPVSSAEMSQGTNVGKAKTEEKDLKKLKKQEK

B1: phosphorylated SNAP-YEEI fusion (middle T antigen aa 315-331) (peptide)
chain: THQEEEEPQYEEIPIYL
modifications: not fully specified; also: tyrosine phosphorylation in vitro by Fyn, degree not placed
B2: Lck SH2 domain without biotin (for MST) (domain or fragment)
chain: WFFKNLSRKDAERQLLAPGNTHGSFLIRESESTAGSFSLSVRDFDQNQGEVVKHYKIRNLDNGGFYISPRITFPGLHELVRHYTNASDGLCTRLSRPC
B3: SLP-76 SH2 domain without biotin (for MST) (domain or fragment)
chain: WYVSYITRPEAEAALRKINQDGTFLVRDSSKKTTTNPYVLMVLYKDKVYNIQIRYQKESQVYLLGTGLRGKEDFLSVSDIIDYFRKMPLLLIDGKNRGSRYQCTLTHAA
B4: Rasa1b (Rasa1 sequence 174-447) without biotin (for MST) (domain or fragment)
chain: TAPPTNQWYHGKLDRTIAEERLRQAGKSGSYLIRESDRRPGSFVLSFLSQMNVVNHFRIIAMCGDYYIGGRRFSSLSDLIGYYSHVSCLLKGEKLLYPVAPPEPVEDRRRVRAILPYTKVPDTDEISFLKGDMFIVHNELEDGWMWVTNLRTDEQGLIVEDLVEEVGREEDPHEGKIWFHGKISKQEAYNLLMTVGQVCSFLVRPSDNTPGDYSLYFRTNENIQRFKICPTPNNQFMMGGRYYNSIGDIIDHYRKEQIVEGYYLKEPVPMQDQE
B5: RasaN (N-terminal SH2 domain of Rasa1) without biotin (for MST) (domain or fragment)
chain: WYHGKLDRTIAEERLRQAGKSGSYLIRESDRRPGSFVLSFLSQMNVVNHFRIIAMCGDYYIGGRRFSSLSDLIGYYSHVSCLLKGEKLLYPV
B6: SH2D1A without biotin (for MST) (natural protein)
chain: MDAVAVYHGKISRETGEKLLLATGLDGSYLLRDSESVPGVYCLCVLYHGYIYTYRVSQTETGSWSAETAPGVHKRYFRKIKNLISAFQKPDQGIVIPLQYPVEKKSSARSTQGTTGIREDPDVCLKAP

How the values were obtained:
Assay in all cases: MST
[1] = target: B2
[2] = target: B6
[3] = target: B4
[4] = target: B5
[5] = target: T1, Fyn SH2 domain without biotin (for MST)
[6] = target: T2, phosphorylated SNAP-ADAP fusion protein …

For B1, the Kd [1] was 595 nM, the Kd [2] was 2340 nM and the Kd [3] was 189 nM. It also gave a Kd [4] of 128 nM and a Kd [5] of 430 nM.

With B2 the Kd [6] was 1300 nM.

Binder B3 has a Kd [6] of 457 nM.

Work on B4 yielded a Kd [6] of 152 nM.

B5 showed a Kd [6] of 142 nM.

Work on B6 yielded a Kd [6] of 5730 nM.
